# From PMC12914960, “Repurposing a detrimental antibody epitope as targeted therapeutics for sepsis and rheumatoid arthritis” (Military Medical Research, 2026)
# Where no end group is shown, it is not given here. [ ]: non-standard residue; d: D form. Nle = CCCC[C@H](N)C(=O)O
# T1: Recombinant human high mobility group box 1 (HMGB1) (human, UniProt P09429 1-215)
# T1 construct: high mobility group box 1 (HMGB1); the SPR methods say recombinant human HMGB1; the SPR paragraph says human; The protein on the chip may be that rat construct
# T1 sequence (looked up): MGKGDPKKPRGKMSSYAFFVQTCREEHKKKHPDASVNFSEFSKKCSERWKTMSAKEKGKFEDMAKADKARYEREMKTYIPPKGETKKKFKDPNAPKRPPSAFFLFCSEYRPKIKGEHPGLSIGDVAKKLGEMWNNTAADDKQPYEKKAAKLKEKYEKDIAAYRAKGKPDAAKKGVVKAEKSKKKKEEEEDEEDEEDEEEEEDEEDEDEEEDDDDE
# B1: HMGB1: recombinant HMGB1 protein used as stimulus (protein)
# chain: MGKGDPKKPRGKMSSYAFFVQTCREEHKKKHPDASVNFSEFSKKCSERWKTMSAKEKGKFEDMAKADKARYEREMKTYIPPKGETKKKFKDPNAPKRPPSAFFLFCSEYRPKIKGEHPGLSIGDVAKKLGEMWNNTAADDKQPYEKKAAKLKEKYEKDIAAYRAKGKPDAAKKGVVKAEKSKKKKEEEEDEEDEEDEEEEEDEEDEDEEEDDDDE
# B2: P2-1 peptide, water-soluble derivative of the tetranectin P2 epitope peptide (peptide)
# chain: TKVH[Nle]KSFLAFQTKT
# B3: mAb8: protective anti-tetranectin monoclonal antibody (antibody, V domains shown)
# VH: DVNLVESGGGLVKLGGSLKLSCADSGFTFSSYYMSWVRQTPEKRLELVAAINSNGGRTYYPDTVKGRFTISRDNAKNTLYLQMSSLKSEDTALYYCARQGKNGLDYWGQGTSVTVSS
# VL: DIQMTQTTSSLSASLGDRVTISCRASQDISNHLNWYQQKPDGTIKLLIYYTSRLHSGVPSRFSGSGSGTDFSLSISNLEQEDIATYFCQQGKTLPPTFGGGTKLEIK
# B4: TN: full-length human tetranectin (protein, UniProt P05452 1-202, looked up)
# chain: MELWGAYLLLCLFSLLTQVTTEPPTQKPKKIVNAKKDVVNTKMFEELKSRLDTLAQEVALLKEQQALQTVCLKGTKVHMKCFLAFTQTKTFHEASEDCISRGGTLGTPQTGSENDALYEYLRQSVGNEAEIWLGLNDMAAEGTWVDMTGARIAYKNWETEITAQPDGGKTENCAVLSGAANGKWFDKRCRDQLPYICQFGIV
# modifications: full-length
# notes: full-length human tetranectin
# Columns and labels:
# [1] = tested on: CLP-induced sepsis in BALB/c mice; assay: Septic survival after cecal ligation and puncture (CLP); type: in vivo, mouse; conditions: P2 5.0 mg/kg twice at 2 h and 24 h post-CLP, i.p.
# Description: Experimental sepsis was induced in BALB/c mice via CLP as previously described. […] The animals were randomly assigned to the control vehicle (n = 10 or n = 20) or experimental groups (n = 10 or n = 20). P2 (5.0 mg/kg), P2-1 (0.1 mg/kg or 1.0 mg/kg), or tetranectin N-terminal deletion mutant (ΔTN) (1.0 mg/kg) were administered intraperitoneally (i.p.) at the indicated time points, and survival rates were monitored. To elucidate P2-1’s protective mechanisms, a separate group of BALB/c mice (n = 4) underwent CLP and received P2-1 (1.0 mg/kg) at 2 h and 20 h post-CLP. At 24 h post-CLP, the animals were euthanized, blood was collected, and serum cytokines and chemokines were measured via murine cytokine antibody arrays as previously described. More details are presented in Additional file 1: Methods.
# For these preclinical studies, animals were random ly assigned to experimental groups and treated with P2, P2-1, or a pCTS-L-neutralizing mAb2 according to the indicated dosing regimens. Outcomes, including septic survival rates, arthritis severity, pain sensitivity, and joint tissue histology scores, were collected under blinded experiment al conditions. The study d esign and sample si zes fo r each exp eriment are d etailed in the figure legends. No data, including outlier values, were excluded. For skewed data, outliers were defined via the interquartile range (IQR) method as any value below Q 1 –(1.5 × IQR) or above Q 3 + (1.5 × IQR). For normally distributed data, outliers were defined via the Z-score method as any value with an absolute Z-score greater than 2 or 3. The primary data are reported in Additional file 4. All the reagent sources are listed in Additional file 1: Table S1 .
# Cecal ligation and puncture (CLP) sepsis model […]
# screening. c Expression and purification of recombinant full-length human TN (residues 1 – 181) and its N-terminal deletion mutant ( ΔTN, residues 45 – 181). […] Recombinant Δ TN was given intraperitoneally at 24 h and 48 h post-C L P, and animal survival rates were monitored. *P < 0.0 5. […]
# Water solubility = type: physicochemical; conditions: qualitative, text in Fig. 1d
# human PBMCs [2] = assay: RNA-seq of HMGB1-stimulated PBMCs; type: cell-based
# Description: Total RNA was isolated from human PBMCs (n = 6 biological replicates) stimulated with HMGB1 in the absence or presence of P2-1 (5.0 or 10.0 µg/ml) via the RNeasy Mini Kit (Qiagen, Germantown, MD, USA) according to the manufacturer’s instructions. cDNA libraries were prepared using the TruSeq RNA Library Prep Kit v2 (Illumina, San Diego, CA, USA) and sequenced on an Illumina NovaSeq 6000 platform to generate 100 bp paired-end reads. Gene counts were quantified via StringTie and DESeq2 for differential gene expression analysis. Volcano plots and heatmaps were generated via ggplot2 and pheatmap packages in R, respectively. Genes with an adjusted P-value < 0.05 and a |log2 fold change|> 1 were considered differentially expressed. […]
# custom-synthesized (Gen Script, Piscataway, NJ, USA). P2 -1 was engineered to: i) increase solubility by removing a w ater-insoluble phenylalanine (F) at the C-terminal residue 70 and introducing a water-soluble threonine (T) at N-t erminal residue 54; and ii) reduce oxidative susceptibility by substituting methionine (M) with norleucine (Nle) and cysteine (C) with serine (S), respectively. The pCTS -L-neutralizing mAbs (mAb2) and TN-neutrali zing mAbs (mAb8 and m Ab9) were generated in BALB/c and C57BL/6 m ice as previously described .
# RNA sequencing (RNA- Seq) and bioinformatics analysis
# Total RNA was isolated from human PBMCs (n= 6 biological replicates) stimulated with HMGB1 in the absence o r pres ence o f P2-1 (5.0 or 10.0 µg/ml) via the RNeasy Mini Kit (Qiagen, Germantown, MD, USA) according to the manufacturer ’s instructions. RNA quantity and quality were assessed via a NanoDrop spectrophotometer, which requires A260/280 and A260/230 ratios to both be > 1.8. Samples meeting these criteria were then sent to two sequencing facilities, where RNA integrity was further confirmed via an Agilent Bioanalyzer. Only samples with an RNA integrity number of 8 or above were accepted for RNA sequencing. cDNA libraries were prepared using the TruSeq RNA Library Prep Kit v2 (Illumina, San Diego, CA, USA) and sequenced on an Illumina NovaSeq 6000 platform to generat e 100 bp paired-end reads. Our data filtering criteria adhered to industry best practices to ensure data quality.
# First, raw sequencing reads underwent quality assessment with FastQC, followed by adapter and low-quality nucleotide trimming using Trimmomatic v.0.36. Subsequently, the high- quality reads wer e aligned to the Homo sapiens GRCh38 reference genome using the STAR aligner v.2.5.2b. Following alignment, PCR duplicates were identified and removed with Picard tools to mitigate amplification bias. Before differential expression an alysis, the gene count matrix was filtered to retain only genes with a count-per-million (CPM) > 1 in at least three samples (n = 3, representing our smallest experimental group). This rigorous procedure ensured that analysis was perfo rmed on a robust set of reliably expressed gen es. Finally, gene counts were quantified via StringTie and DESeq2 for differential gene expression analysis. Volcano
# [3] = target: T1, Recombinant human high mobility group …; assay: SPR; Nicoya OpenSPR; recombinant human HMGB1 immobilized on a carboxyl sensor chip, P2-1 flowed over at various concentrations in HBS-P buffer; 1:1 interaction model; three independent experiments; conditions: both partners purified
# [4] = tested on: synthetic TN peptides (P1 – P10); assay: Epitope mapping of mAb8 and mAb9 by dot blotting against TN peptides P1 – P10; type: binding, human; conditions: 10 synthesized TN peptides, mAb 1.0 µg/ml, chemiluminescence
# Description: remove unbound protein and then fixed with 4% paraformaldehyde for 20 min at room temperature.
# Coverslips were mounted onto slides via Vectashield Mounting Medium for fluorescen ce with DAPI (Cat.
# #H-1200, Vector Laborat ories, Inc., Newark, CA, USA) for nuclear counterstaining. Endocytic uptake of Alexa Fluor 555- labeled HMGB1 (red) was visualized via the Olympus IX51 inverted fluorescence & phase contrast tissue culture microscope. Cellular HMGB1 uptake was quantified by measuring the mean fluorescen ce intensity of the Alex a- 555- labeled HMGB1 protein within multiple representative cells via ImageJ an alysis software.
# Antibody sequencing and antigen contact structure (ACS) prediction
# Total RNA was extracted from mAb8 and mAb9 hybridoma cells via TRIzol (Invitrogen, Austin, TX, USA), and cDNA was synthesized via reverse transcriptase. […]
# Corresponding to the C-terminal portion of the TN protein (Additional file 1: Fig. S4a) , a library of 10 synthetic peptides (P1 – P10, Additional file 1: Fig. S4b ) was spotted (0.1 μ g in 2.5 μ l) onto nitrocellulose membranes (Cat No. 88013, Thermo Scientific, Waltham, MA, USA ). […] After washing, the membranes were incubated with HRP-conjugated goat anti-mouse IgG (Jackson ImmunoResearch, West Grove, PA, USA), and signals were detected via chemiluminescence as previously described [ 1].
# [5] = tested on: CLP-induced sepsis in BALB/c mice; conditions: text in Fig. 1b; mAb8 22% to 77%, mAb9 80% to 50%; ref [21]; cited from earlier work
# [6] = tested on: Differentiated human macrophages; conditions: full-length TN; ref [21]; cited from earlier work
# From the text: To investigate P2-1’s effect on HMGB1 endocytosis, differentiated human macrophages were exposed to Alexa Fluor 555-labeled HMGB1 under various conditions (Fig. 5d).
# human PBMCs [7] = conditions: TN; ref [21]; cited from earlier work
# From the text: To validate these RNA-seq findings, we quantified HMGB1-induced cytokine/chemokine protein levels using cytokine antibody arrays. Consistent with our RNA-seq data, HMGB1 stimulation led to a significant increase in the protein levels of various cytokines (e.g., TNF, IL-6, and IL-10) and chemokines (e.g., CXCL5/ENA-78, CXCL1/GRO-α, CXCL8/IL-8, CCL2/MCP-1, and CCL7/MCP-3) in human PBMCs (Fig. 6b), confirming its potent immunomodulating activities.
# [8] = tested on: Differentiated human macrophages; conditions: TN; ref [21]; cited from earlier work
# From the text: Crucially, our findings reveal a striking dichotomy in the biological effects of full-length TN and its derived peptide, P2-1, on HMGB1-mediated detrimental macrophage responses. […] We propose that full-length TN, when complexed with HMGB1, may engage unidentified macrophage surface receptor(s), thereby facilitating receptor-mediated endocytosis of TN/HMGB1 complexes and ...
molecule,measurement,setting,value
KVHMKCFLAFQTKTF [P2],"septic survival, in words",[1],significantly increased survival rates in both male and female mice
same,Water solubility,Water solubility,Poor water solubility
B1,Log2 Fold change,"human PBMCs [2]; CXCL5 (ENA-78), P-adjust 3.97E-166",9.951
same,Log2 Fold change,"human PBMCs [2]; CXCL8 (IL-8), P-adjust 1.17E-133",5.985
same,Ctsl mRNA upregulation,"human PBMCs [2]; HMGB1-only group, human PBMCs",3.4 ± 0.3 -fold
same,Log2 Fold change,"human PBMCs [2]; IL1B (IL-1β), P-adjust 1.29E-157",8.223
same,Log2 Fold change,"human PBMCs [2]; MT1G (Metallothionein-1G), P-adjust 9.98E-141",9.377
B2,Kd,[3],16.9 nM
B3,epitope peptide recognised (dot blot),[4],targeted P5
same,survival in sepsis,[5],77%
B4,"HMGB1 cellular uptake, in words",[6],significantly increased HMGB1 uptake
same,"HMGB1-induced cytokines/chemokines, in words",human PBMCs [7],"did not affect HMGB1-induced cytokines (e.g., IL-6) or chemokines (e.g., MCP-1)"
same,"HMGB1 endocytosis and macrophage pyroptosis, in words",[8],enhances HMGB1 endocytosis and subsequent macrophage pyroptosis
